Assay results reported in the supplement of paper PMC10567573.

B1: VAMP4 (parent)
chain: IMALVAAILLLVIIILIVMKYRT
B2: ANKRD17 (parent)
chain: EMVRFLLEAGADQEHKTDEMHTAL

Variants of: B1
Test: protein stability index of a GFP-peptide fusion (GPS, HEK-293T) (PSI 1-6); higher = more stable
Conditions: c terminus: native
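Note: lentivirally expressed fusions sorted by FACS into six bins by GFP to DsRed ratio, PSI derived from sequencing read proportions per bin multiplied by bin number.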

Protein stability index: each site, then its substitutions
A3: I 3.5, R 3.58, Y 3.55, Q 3.28, E 2.2, D 1.33, P 2.9, L 3.65, N 2.46, M 3.72, S 2.86, H 2.85, K 3.28, T 3.17, C 3.34, V 3.59, W 3.47, G 3.17, F 3.55
I8: D 3.13, G 3.37, A 3.34, W 2.47, L 3.28, K 2.72, S 3.25, F 3.4, P 2.85, N 2.48, Q 2.01, H 2.14, Y 2.26, T 3.25, R 2.72, V 3.04, E 2.68, C 3.01, M 3.69
L11: F 3.58, T 3.56, Q 2.6, I 3.33, V 3.46, D 2.28, G 3.71, N 2.25, R 2.98, A 3.51, K 2.61, E 2.27, W 2.84, C 3.27, Y 2.68, H 2.71, M 3.33, S 3.39, P 3.43
L4: H 2.36, D 2.9, M 3.29, G 3.32, Y 2.76, N 1.79, E 1.57, V 3.14, I 3.33, R 3.42, C 3.07, P 2.83, T 3.19, Q 2.19, F 3.69, W 3.59, K 2.78, A 3.08, S 3.29
L9: F 3.56, E 1.96, R 1.95, N 2.4, W 2.76, M 3.74, D 2.68, P 2.43, A 2.92, V 3.3, H 2.52, K 2.5, I 3.36, C 3.33, Y 2.12, S 3.05, Q 2.29, G 3.48, T 3.08
V5: R 2.73, Y 3.72, F 3.17, N 1.84, A 3.36, C 3.37, L 3.23, M 3.81, S 2.96, W 3.4, Q 1.83, D 2.77, P 2.36, G 3.37, K 2.1, H 2.13, I 2.97, T 3.31, E 2.42
I1: M 3.56, V 3.38, P 3.56, Q 3.45, T 3.53, C 3.16, H 3.39, S 3.02, Y 3.52, N 2.69, G 3.11, E 2.77, K 3.29, A 3.25, D 2.5, W 3.51, R 3.06, F 3.39, L 3.49
V12: K 2.06, N 2.48, R 2.49, I 3.64, G 3.32, H 2.3, D 1.65, P 2.62, L 3.23, E 1.6, C 2.97, Q 2.54, F 3.47, M 3.03, A 3.62
A6: E 2.3, W 2.02, G 3.2, Q 2.37, M 3.34, R 2.47, P 2.54, H 2.06, C 3.2, V 3.23, F 3.75, N 2.1, I 3.61, Y 2.06, T 3.43, D 2.8, L 3.39, K 2.68, S 3.71
L10: Y 2.03, I 3.35, V 3.53, E 1.79, R 3.16, P 1.95, M 3.35, F 3.43, D 3.06, K 1.97, N 2.48, C 2.84, Q 2.67, H 2.46, A 2.87, T 2.87, S 2.86, G 2.73, W 2.78
A7: H 1.84, V 3.45, K 3.15, R 3.36, G 3.51, Q 1.91, W 3.03, M 3.09, L 3.58, E 1.62, N 2.02, T 3.4, F 3.74, I 3.42, P 2.75, S 3.81, C 3.29, D 2.37, Y 2.94
M2: K 2.98, E 2.4, R 3.53, H 2.4, D 2.98, C 3.25, V 2.72, L 3.03, A 2.73, T 2.81, Y 3.22, F 3.53, Q 2.96, P 3.28, S 3.18, W 3.66, N 1.93, G 2.98, I 3.15

Variants of: B2
Test: as above
Conditions: c terminus: a fixed tail appended

Protein stability index of substitutions, site by site:
H21: G 3.1, M 3.25, Q 3.55, N 3.05, F 2.19, E 2.89, W 1.92, C 3.21, V 2.34, Y 2.41, S 3.4, T 2.81, P 2.54, L 2.66, I 2.55, K 3.11, A 3.24, R 3.36, D 2.96
A23: I 2.97, S 3.05, T 2.74, D 3.06, W 3.12, M 2.7, N 3.01, C 2.49, P 3.12, E 2.91, K 2.76, V 2.6, H 2.69, G 2.72, Q 3.69, L 2.43, F 2.18, R 2.96, Y 3.03
L24: K 3.3, V 2.62, R 2.72, W 2.68, T 3.05, F 2.34, I 2.31, Q 3.14, E 3.79, A 2.75, D 4.06, N 3.03, G 3, M 2.37, S 2.99, C 2.75, Y 2.95, P 2.4, H 2.78
M20: L 3.13, C 2.48, D 3.56, Y 2.45, I 2.36, S 3.45, F 2.75, W 2.82, P 3.21, N 3.59, T 3.15, K 2.94, G 3.12, V 2.84, A 3.04, H 2.79, Q 3, E 2.94, R 3.5
E19: G 1.71, S 2.16, I 1.63, M 2.01, V 1.79, P 1.87, Q 1.92, T 2.53, W 1.43, N 3.27, L 2.29, H 2.22, Y 1.6, R 2.7, K 1.91
T22: K 2.51, R 2.5, I 1.93, M 2.15, F 1.97, G 3.23, W 1.91, N 2.86, V 2.46, E 3.42, H 2.39, Q 2.78, L 3.45, Y 1.93, P 2.86, D 2.75, C 2.2, S 2.98, A 2.77
